Measured values: patent US20190270826A1 (Janssen / Centocor, published 2019)
Numbering of substitutions follows the chain as printed. Names may count otherwise. Read-outs that look alike come from different tables or passages of the source.

Experiments:
[1] = biological target: T1, rat IL1RAP ECD displayed on HEK-293F cells (pDisplay) (rat, UniProt Q63621 21-367); experiment: MSD cell binding, HEK-293F Rat clone 1 cells displaying rat IL1RAP ECD
T1 sequence: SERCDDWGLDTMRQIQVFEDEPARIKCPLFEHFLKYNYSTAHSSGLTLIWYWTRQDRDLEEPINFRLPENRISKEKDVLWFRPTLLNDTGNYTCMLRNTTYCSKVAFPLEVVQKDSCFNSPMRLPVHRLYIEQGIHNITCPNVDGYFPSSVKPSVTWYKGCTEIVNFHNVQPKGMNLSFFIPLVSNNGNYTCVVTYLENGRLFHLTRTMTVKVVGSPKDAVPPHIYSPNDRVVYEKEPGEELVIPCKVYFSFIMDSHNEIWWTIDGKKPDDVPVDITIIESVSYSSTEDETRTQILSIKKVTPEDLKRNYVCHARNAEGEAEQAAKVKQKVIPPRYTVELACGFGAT
Method: (§1) Cells were immobilized and IL1RAP antibody samples were assayed in triplicate. Briefly, expression supernatants of purified IL1RAP antibodies were normalized to 10 μg/mL. 5000 cells per well were plated into a 384 well plate (MA6000, cat. L21XB, MSD) and allowed to adhere for 2 hr. Cells were then blocked with 20% FBS in PBS (Gibco) for 15 mins. Antibody supernatants were then added and left at RT for 1 hr. Cells were washed 3 times with PBS and a ruthenium labeled secondary antibody (Mesoscale Discovery) was then added at 2 μg/mL and incubated for 1 hour at room temperature. A further washing step was then applied and 35 μL per well of 2×MSD Read buffer T (surfactant free) was then added and incubated for 5-30 minutes for detection. Plates were then read using Sector Imager 2400 (MSD). Data was normalized to controls and graphed using GraphPad Prism Version 5. A positive binder was determined to be a hit with a signal 3× greater than parental cell line background.
(§2) The MSD cell binding assay described in Example 4 was used to assess IL1RAP binding.

human FcRn = biological target: T2, human FcRn (human, UniProt P55899 24-297; P61769 21-119, limits assumed); experiment: AlphaScreen competition, human FcRn (n=1); displaced: biotinylated control mAb B21M WT IgG1 (m27); pH 6.0
T2 construct: GST-tagged
Excerpt: (§3) Measurements were made using an AlphaScreen™ assay (Amplified Luminescent Proximity Homogeneous Assay (ALPHA), PerkinElmer, Wellesley, Mass.), a bead-based luminescent proximity assay. Laser excitation of a donor bead excites oxygen, which if sufficiently close to the acceptor bead generates a cascade of chemiluminescent events, ultimately leading to fluorescence emission at 520-620 nm.

[2] = biological target: T3, cyno IL1RAP ECD displayed on HEK-293F cells (pDisplay) (cynomolgus monkey, UniProt P59822 21-367 (rhesus entry)); experiment: MSD cell binding, HEK-293F Cyno (clone CB8) cells displaying cyno IL1RAP ECD
T3 sequence: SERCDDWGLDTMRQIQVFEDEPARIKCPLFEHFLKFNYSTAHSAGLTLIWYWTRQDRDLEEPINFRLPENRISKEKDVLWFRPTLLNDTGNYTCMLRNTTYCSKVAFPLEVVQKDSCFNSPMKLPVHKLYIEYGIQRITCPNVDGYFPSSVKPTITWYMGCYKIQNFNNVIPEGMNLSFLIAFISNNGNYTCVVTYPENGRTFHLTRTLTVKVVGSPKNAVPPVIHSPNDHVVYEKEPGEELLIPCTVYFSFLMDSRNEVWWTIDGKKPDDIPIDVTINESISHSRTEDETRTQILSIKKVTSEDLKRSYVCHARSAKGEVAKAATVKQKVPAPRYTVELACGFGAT
Method: as §1, §2

[3] = biological target: T4, human IL1RAP ECD displayed on HEK-293F cells (pDisplay) (human, UniProt Q9NPH3 21-367); experiment: MSD cell binding, HEK-293F Human (clone HE2) cells displaying human IL1RAP ECD
T4 construct: also called Human clone HE2 IL1RAP FL-ECD cell line
T4 sequence: T3 sequence with F183L, P273T, T326K
Method: as §1, §2

human FcγRI = biological target: T5, human FcγRI (human, UniProt P12314 16-292, limits assumed); experiment: AlphaScreen competition, human FcγRI (n=1); displaced: biotinylated control mAb B21M hIgG1 AlaAla; pH 7.2
T5 construct: GST-tagged, on glutathione acceptor beads; also called FcγRT [sic]
Excerpt: as §3

[4] = biological target: T6, human IL1RAP on cells (endogenous) (human, UniProt Q9NPH3 21-570); experiment: cell-based or functional assay
T6 sequence (looked up): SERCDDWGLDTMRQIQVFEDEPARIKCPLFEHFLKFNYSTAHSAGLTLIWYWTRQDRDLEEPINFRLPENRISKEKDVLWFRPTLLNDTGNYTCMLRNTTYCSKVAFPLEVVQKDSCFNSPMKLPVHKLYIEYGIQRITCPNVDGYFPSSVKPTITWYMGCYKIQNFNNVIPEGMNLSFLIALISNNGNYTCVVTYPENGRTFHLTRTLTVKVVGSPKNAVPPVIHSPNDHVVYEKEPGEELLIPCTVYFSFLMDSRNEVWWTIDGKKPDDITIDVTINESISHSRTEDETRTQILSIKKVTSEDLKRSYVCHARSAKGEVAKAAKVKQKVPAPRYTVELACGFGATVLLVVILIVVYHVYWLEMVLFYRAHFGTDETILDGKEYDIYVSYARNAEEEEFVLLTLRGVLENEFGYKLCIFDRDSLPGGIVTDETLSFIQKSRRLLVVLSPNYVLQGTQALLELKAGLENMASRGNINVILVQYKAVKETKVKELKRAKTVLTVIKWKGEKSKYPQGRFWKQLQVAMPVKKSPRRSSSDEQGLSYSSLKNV

[5] = biological target: T7, mouse IL1RAP ECD displayed on HEK-293F cells (pDisplay) (mouse, UniProt Q61730 21-367); experiment: MSD cell binding, HEK-293F Mouse clone 5 cells displaying mouse IL1RAP ECD
T7 sequence: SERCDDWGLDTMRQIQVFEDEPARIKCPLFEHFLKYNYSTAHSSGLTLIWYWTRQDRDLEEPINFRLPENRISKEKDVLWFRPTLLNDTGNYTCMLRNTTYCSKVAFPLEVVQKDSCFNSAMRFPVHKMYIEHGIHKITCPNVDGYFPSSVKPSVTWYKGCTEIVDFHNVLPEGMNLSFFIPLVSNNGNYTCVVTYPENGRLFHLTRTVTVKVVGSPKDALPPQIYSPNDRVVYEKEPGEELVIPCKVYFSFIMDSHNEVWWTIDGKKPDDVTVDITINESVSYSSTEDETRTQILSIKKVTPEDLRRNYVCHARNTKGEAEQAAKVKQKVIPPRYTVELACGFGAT
Method: as §1, §2

[6] = biological target: T8, recombinant human IL1RAP ECD (human, UniProt Q9NPH3 21-367); experiment: SPR, summary
T8 construct: His-tagged; also called hIL1RAP-ECD; rhuIL1RAP
T8 sequence: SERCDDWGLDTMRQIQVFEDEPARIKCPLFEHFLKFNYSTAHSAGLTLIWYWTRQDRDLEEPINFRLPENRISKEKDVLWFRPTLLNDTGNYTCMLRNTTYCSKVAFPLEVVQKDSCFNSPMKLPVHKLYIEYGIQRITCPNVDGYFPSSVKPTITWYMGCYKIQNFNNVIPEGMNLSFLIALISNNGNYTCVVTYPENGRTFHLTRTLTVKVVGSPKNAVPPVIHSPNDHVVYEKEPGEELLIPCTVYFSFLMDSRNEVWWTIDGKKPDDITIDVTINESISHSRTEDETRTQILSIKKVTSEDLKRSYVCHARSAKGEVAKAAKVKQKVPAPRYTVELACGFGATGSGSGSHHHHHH

[7] = biological target: T8, recombinant human IL1RAP ECD; experiment: SPR (ProteOn)
[8] = biological target: T8, recombinant human IL1RAP ECD; experiment: SPR (ProteOn); remark: listed apart in the source
[9] = biological target: T3, cyno IL1RAP ECD displayed on HEK-293F …; experiment: HEK-293F cells (MSD)
[10] = biological target: T8, recombinant human IL1RAP ECD; experiment: SPR; KD against parent IAPB4
[11] = biological target: T9, recombinant cyno IL1RAP ECD (cynomolgus monkey, UniProt P59822 21-367 (rhesus entry)); experiment: recombinant protein
T9 construct: also called rcynoIL1RAP
T9 sequence: T8 sequence with L183F, T273P, K326T

B1: IC3B18 (bispecific antibody, human IgG4 S228P, lambda, F234A L235A)
heavy 1: EVQLVESGGGLVQPGGSLRLSCAASGFTFNTYAMNWVRQAPGKGLEWVARIRSKYNNYATYYAASVKGRFTISRDDSKNSLYLQMNSLKTEDTAVYYCARHGNFGNSYVSWFAYWGQGTLVTVSSASTKGPSVFPLAPCSRSTSESTAALGCLVKDYFPEPVTVSWNSGALTSGVHTFPAVLQSSGLYSLSSVVTVPSSSLGTKTYTCNVDHKPSNTKVDKRVESKYGPPCPPCPAPEAAGGPSVFLFPPKPKDTLMISRTPEVTCVVVDVSQEDPEVQFNWYVDGVEVHNAKTKPREEQFNSTYRVVSVLTVLHQDWLNGKEYKCKVSNKGLPSSIEKTISKAKGQPREPQVYTLPPSQEEMTKNQVSLTCLVKGFYPSDIAVEWESNGQPENNYKTTPPVLDSDGSFLLYSKLTVDKSRWQEGNVFSCSVMHEALHNHYTQKSLSLSLGK
light 1: QTVVTQEPSLTVSPGGTVTLTCRSSTGAVTTSNYANWVQQKPGQAPRGLIGGTNKRAPGTPARFSGSLLGGKAALTLSGVQPEDEAEYYCALWYSNLWVFGGGTKLTVLGQPKAAPSVTLFPPSSEELQANKATLVCLISDFYPGAVTVAWKADSSPVKAGVETTTPSKQSNNKYAASSYLSLTPEQWKSHRSYSCQVTHEGSTVEKTVAPTECS
heavy 2: not shown
light 2: QSALTQPRSVSGSPGHSVTISCTGTSSDVGDYNYVSWYQQRPGKVPKLLIYDVSKRPSGVPDRFSGSKSGNTASLTISGLQAEDEAIYFCASYAGNYNVVFGGGTKLTVLGQPKAAPSVTLFPPSSEELQANKATLVCLISDFYPGAVTVAWKADSSPVKAGVETTTPSKQSNNKYAASSYLSLTPEQWKSHRSYSCQVTHEGSTVEKTVAPTECS
notes: IgG4-PAA, Fab arm exchange; also called IAPB63 x CD3B219; IL1RAP x CD3
For B1, the binding result [1] was “no binding (tested: 100 µg/mL)”, the “IC50 (read off the curve)” value (human FcRn) was about 200 nM and the “EC50 (read off the curve)” value [2] was about 1 µg/mL. For the same binder, the “EC50 (read off the curve)” value [3] was about 1 µg/mL, the “IC50 (read off the curve)” value (human FcγRI) was about 90 nM and the “Average EC50, SKNO-1 cytotoxicity in whole blood, 24 hour” value [4] was 2.92 nM. For the same binder, the “Average EC50, SKNO-1 cytotoxicity in whole blood, 48 hour” value [4] was 0.804 nM, the “EC50, SKNO-1 cytotoxicity in whole blood, donor 00201, 24 hour” value [4] was 8.62 nM and the “EC50, SKNO-1 cytotoxicity in whole blood, donor 00201, 48 hour” value [4] was 0.704 nM. For the same binder, the “EC50, SKNO-1 cytotoxicity in whole blood, donor 00263, 24 hour” value [4] was 0.4 nM, the “EC50, SKNO-1 cytotoxicity in whole blood, donor 00263, 48 hour” value [4] was 0.58 nM and the “EC50, SKNO-1 cytotoxicity in whole blood, donor 27050, 48 hour” value [4] was 2.04 nM. For the same binder, the “EC50, SKNO-1 cytotoxicity in whole blood, donor 27060, 24 hour” value [4] was 2.5 nM, the “EC50, SKNO-1 cytotoxicity in whole blood, donor 27060, 48 hour” value [4] was 0.516 nM and the “EC50, SKNO-1 cytotoxicity in whole blood, donor 27067, 24 hour” value [4] was 1.11 nM. The “EC50, SKNO-1 cytotoxicity in whole blood, donor 27067, 48 hour” value [4] was 0.337 nM, the “EC50, SKNO-1 cytotoxicity in whole blood, donor 32771, 24 hour” value [4] was 1.94 nM and the “EC50, SKNO-1 cytotoxicity in whole blood, donor 32782, 48 hour” value [4] was 0.65 nM. B1: no binding (tested: 100 µg/mL) [5].

B2: IAPB04 (antibody, human IgG4 S228P, kappa, F234A L235A, V domains shown)
VH: QVQLVQSGAEVKKPGSSVKVSCKASGGTFSSYAISWVRQAPGQGLEWMGGISAIFGTANYAQKFQGRVTITADESTSTAYMELSSLRSEDTAVYYCARHLHNGIHLDYWGQGTLVTVSS
VL: EIVLTQSPATLSLSPGERATLSCRASQSVSNFLAWYQQKPGQAPRLLIYGASNRATGIPARFSGSGSGTDFTLTISSLEPEDFAVYYCQQGKHWPWTFGQGTKVEIKR
notes: IgG4-PAA; also called IAPB4; phage hit B4
B2 was tested, and the Kd [6] was 5.66 nM, the Kd [7] was 4.73 nM and the koff [7] was 0.0014 s⁻¹. For the same binder, the kon [7] was 295000 M⁻¹ s⁻¹, the Kd [8] was 5.66 nM and the koff [8] was 0.00144 s⁻¹. For the same binder, the kon [8] was 255000 M⁻¹ s⁻¹, the binding result [9] was “binds” and the “Fold Different from parent” value [10] was 1 fold. B2: binds [11].

B3: IAPB65 (antibody, human IgG4 S228P, kappa, F234A L235A, V domains shown)
VH: B2 VH with G103A
VL: B2 VL
notes: IgG4-PAA; whole chains; also called IAPB4-HC-G103A; IgG4-PAA, B4 mutant
B3 showed a Kd [6] of 10.4 nM, a Kd [7] of 10.4 nM and a koff [7] of 0.00341 s⁻¹. For the same binder, the kon [7] was 329000 M⁻¹ s⁻¹ and the “Fold Different from parent” value [10] was 2.2 fold.
